Source: patent US20200181255A1 (Amgen, published 2020)
Changes are numbered by the printed parent chain.

T1: recombinant human IL-23 (human, UniProt Q9NPF7 20-189; P29460 23-328)
T1 construct: also called rhuIL-23; recombinant human (rhu) IL-23
T1 sequence 1: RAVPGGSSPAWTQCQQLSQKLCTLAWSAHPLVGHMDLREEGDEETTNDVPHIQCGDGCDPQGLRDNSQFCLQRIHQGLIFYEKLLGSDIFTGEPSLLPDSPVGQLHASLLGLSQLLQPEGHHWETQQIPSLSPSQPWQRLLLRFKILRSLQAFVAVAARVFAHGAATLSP
T1 sequence 2: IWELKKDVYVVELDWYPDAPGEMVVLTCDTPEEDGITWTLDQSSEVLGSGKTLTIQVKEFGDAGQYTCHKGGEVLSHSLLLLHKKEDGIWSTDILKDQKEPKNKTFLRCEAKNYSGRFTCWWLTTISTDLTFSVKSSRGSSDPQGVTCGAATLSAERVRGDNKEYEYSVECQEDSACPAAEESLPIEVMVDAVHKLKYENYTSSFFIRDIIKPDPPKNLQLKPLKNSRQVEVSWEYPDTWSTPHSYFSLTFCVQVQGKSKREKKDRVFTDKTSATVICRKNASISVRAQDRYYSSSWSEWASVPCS

T2: recombinant cynomolgous IL-23 (cynomolgous)
T2 chain 1: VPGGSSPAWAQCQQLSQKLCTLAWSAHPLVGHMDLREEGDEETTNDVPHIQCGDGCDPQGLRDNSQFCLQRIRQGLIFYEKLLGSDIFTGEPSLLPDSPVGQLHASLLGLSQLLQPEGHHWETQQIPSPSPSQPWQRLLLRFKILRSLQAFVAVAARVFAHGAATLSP
T2 chain 2: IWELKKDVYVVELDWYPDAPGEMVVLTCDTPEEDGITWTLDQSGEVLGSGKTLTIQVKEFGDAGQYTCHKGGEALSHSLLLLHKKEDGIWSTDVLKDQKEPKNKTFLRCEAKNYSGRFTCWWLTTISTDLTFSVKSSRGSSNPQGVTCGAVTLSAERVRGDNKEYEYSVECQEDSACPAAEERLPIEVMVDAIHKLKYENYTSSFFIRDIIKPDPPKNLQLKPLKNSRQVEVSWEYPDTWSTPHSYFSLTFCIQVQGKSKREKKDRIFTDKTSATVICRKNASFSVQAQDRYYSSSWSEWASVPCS

T3: Native human IL-23 (human, UniProt Q9NPF7 20-189; P29460 23-328)
T3 sequence 1: T1 sequence 1
T3 sequence 2: T1 sequence 2

B1: Antibody G (antibody, V domains shown)
VH: QVQLQESGPRLVKPSETLSLTCTVSGDSISSYFWSWIRQPPGKGLEWLGYIYYSGSTNYNPSLKSRVTISIDTSKNQFSLKLSSVTAADTAVYYCTRDRGSYYGSDYWGQGTLVTVSS
VL: DIQMTQSPSSVSASVGDRVTITCRAGQVISSWLAWYQQKPGKAPKLLIYAASSLQSGVPSRFSGSGSGTDFTLTISSLQPDDFATYYCQQATSFPLTFGGGTKVEIK
notes: also called VH12/VL12
B2: Antibody L (antibody, V domains shown)
VH: QVQLVESGGGVVQPGRSLRLSCAASGFTFSSYAMHWVRQAPGKGLEWLSVISHDGSIKYYADSVKGRFTISRDNSKNTLYLQMNSLRAEDTAVYYCARERTTLSGSYFDYWGQGTLVTVSS
VL: QAVLTQPSSLSASPGASASLTCTLRSGINVGTYRIYWYQQKPGSPPQYLLRYKSDSDKQQGSGVPSRFSGSKDASANAGILLISGLQSEDEADYYCMIWHSSASVFGGGTKLTVL
notes: also called VH4/VL4
B3: Antibody B (antibody, V domains shown)
VH: QVQLQESGPGLVKPSQTLSLTCTVSGGSISSGGYYWSWIRQHPGKGLEWIGHIHYSGNTYYNPSLKSRVTISVDTSKNQFSLKLSSVTAADTAVYYCAKNRGFYYGMDVWGQGTTVTVSS
VL: B1 VL with G26S, K45S, G66V, D81E, T92N, L96F, G100P, E105D, I106F
notes: also called VH9/VL9
B4: Antibody C (antibody, V domains shown)
VH: B3 VH with S30N, H52Y, H54Y, N58S, T59S, K77Q, K99R, N100D, F103H
VL: B1 VL with G26S, V28G, I29S, L33F, D81E, T92N, L96F, G100P, E105D
notes: also called VH10/VL10
B5: Antibody A (antibody, V domains shown)
VH: B3 VH with H52Y, H54Y, N58S, I71M
VL: DIQLTQSPSSVSASVGDRVTITCRASQVISSWFAWYQQKPGKAPNLLIYAASSLQSGVPSRFSGSGSGTDFTLTISSLQPADFATYFCQQANSFPFTFGPGTKVDVK
B6: Antibody E (antibody, V domains shown)
VH: QVQLVESGGGVVQPGRSLRLSCAASGFTFSSYGMHWVRQAPGKGLEWVAVIWYDGSNEYYADSVKGRFTISRDNSKNTLYLQMNSLRAEDTAVYYCARDRGYTSSWYPDAFDIWGQGTMVTVSS
VL: QSVLTQPPSVSGAPGQRVTISCTGSSSNTGAGYDVHWYQQVPGTAPKLLIYGSGNRPSGVPDRFSGSKSGTSASLAITGLQAEDEADYYCQSYDSSLSGWVFGGGTRLTVL
B7: Antibody H (antibody, V domains shown)
VH: B3 VH with S37T, H52Y, H54Y, V69I, K83S, K99R, F103Y
VL: B5 VL with L4M, V28G, I29F, S31G, F33L, N45K, A81E, F87Y, V106I
B8: Antibody I (antibody, V domains shown)
VH: QVQLQESGPGLVKPSETLSLTCTVSGGSISTYYWSWIRQPAGKGLEWIGLIYTSGSTNYNPSLKSRVTMSLDTSKNQFSLRLTSVTAADTAVYYCARDRGYYYGVDVWGQGTTVTVSS
VL: B1 VL with M4L, Q6P, G26S, V28G, S30A, S31G, D81E, T92D, L96P
B9: Antibody J (antibody, V domains shown)
VH: B2 VH with A33G, L48V, S49A, H53F, I57L
VL: B2 VL
B10: Antibody K (antibody, V domains shown)
VH: EVQLVESGGGLVQPGGSLRLSCVVSGFTFSSFSMNWVRQAPGKGLEWVSYISSRSSTIYYADSVKGRFTISRDNAKNSLYLQMNSLRDEDTAVYYCARRIAAAGPWGYYYAMDVWGQGTTVTVSS
VL: QPELTQPPSASASLGASVTLTCTLSSGYSDYKVDWYQLRPGKGPRFVMRVGTGGTVGSKGEGIPDRFSVLGSGLNRSLTIKNIQEEDESDYHCGADHGSGSNFVYVFGTGTKVTVL
B11: Antibody M (antibody, V domains shown)
VH: B10 VH with V23A, V24A, F32Y, Y60I, P105G, W106F, G107H, M112L
VL: B10 VL with E3V, S25N, L38Q, T55I, E61D, S77Y
B12: Antibody N (antibody, V domains shown)
VH: B10 VH with V23A, V24A, S31T, F32Y, R54S, I58R, Y60H
VL: B10 VL with E3V, L38Q, T55I, S77Y, S101N

target: T1, recombinant human IL-23; assay: KinExA

Binder	kon [M⁻¹ s⁻¹]
B1	400000
B2	3.34e+06
B3	1.17e+06
B4	1.36e+06

Target: T2, recombinant cynomolgous IL-23
Assay: cell-based or functional assay

Binder	IC50 (pM), STAT-luciferase assay [pM]
B5	379
B6	188
B1	421
B7	1024
B8	650
B9	56
B10	61
B2	47
B11	56
B3	130
B12	238
B4	376

target: T3, Native human IL-23; assay: cell-based or functional assay

Binder	IC50 (pM), STAT-luciferase assay [pM]
B5	114
B6	140
B1	156
B7	192
B8	208
B9	83
B10	71
B2	113
B11	34
B3	45
B12	361
B4	107

target: T1, recombinant human IL-23; assay: cell-based or functional assay

Binder	IC50 (pM), STAT-luciferase assay [pM]
B5	190
B1	296
B7	253
B8	338
B9	36
B10	43
B2	23
B11	40
B3	100
B12	145
B4	211

Target: T2, recombinant cynomolgous IL-23
Assay: cell-based or functional assay
Remark: another data set of the same source

Binder	IC50 (pM), NK cell assay (IFNγ) [pM]
B5	31
B6	21
B1	23
B7	33
B8	52
B9	5
B10	8
B2	4
B11	12
B3	19
B4	29

target: T3, Native human IL-23; assay: cell-based or functional assay; remark: another data set of the same source

Binder	IC50 (pM), NK cell assay (IFNγ) [pM]
B6	158
B1	152
B3	85

target: T1, recombinant human IL-23; assay: cell-based or functional assay; remark: another data set of the same source

Binder	IC50 (pM), NK cell assay (IFNγ) [pM]
B5	42
B1	45
B7	29
B8	69
B9	4
B10	7
B2	3
B11	8
B3	48
B4	32

Target: T2, recombinant cynomolgous IL-23
Assay: cell-based or functional assay
Remark: another data set of the same source

Binder	IC50 (pM), IFNγ human whole blood assay [pM]
B6	54
B1	93
B3	161
B4	186

target: T1, recombinant human IL-23; assay: cell-based or functional assay; remark: another data set of the same source

Binder	IC50 (pM), IFNγ human whole blood assay [pM]
B1	53
B3	117
B4	97

Target: T2, recombinant cynomolgous IL-23
Assay: cell-based or functional assay
Remark: another data set of the same source

Binder	IC50 (pM), IL-22 human whole blood assay [pM]
B6	56
B1	66
B3	113

target: T1, recombinant human IL-23; assay: cell-based or functional assay; remark: another data set of the same source

Binder	IC50 (pM), IL-22 human whole blood assay [pM]
B1	83
B3	117

target: T1, recombinant human IL-23; assay: KinExA, derived from KD=Koff/Kon

Binder	koff [s⁻¹]
B1	8.1e-07
B2	3.7e-06
B3	4.7e-06
B4	4.1e-06

target: T1, recombinant human IL-23; assay: KinExA, solution equilibrium, rhuIL-23-coated beads
Procedure: Normal human serum (NHS)-activated Sepharose 4 fast flow beads (Amersham Biosciences, part of GE Healthcare, Uppsala, Sweden), are pre-coated with rhuIL-23 and blocked with 1 m Tris buffer with 10 mg/mL BSA. 50 pM of IL-23 antibody is incubated with rhuIL-23 (12 points of 1:2 dilutions starting from 800 pM) at room temperature for 72 hours before it is run through the rhuIL-23-coated Sepharose beads. The amount of the bead-bound antibody was quantified by fluorescent (Cy5) labeled goat anti-human-Fc antibody (Jackson Immuno Research, West Grove, Pa.). The binding signal is proportional to the amount of free antibody at equilibrium.

Binder	Kd [pM]
B1	2
B2	1.08
B3	3.99
B4	2.56
